Results as given in paper PMC9445010.

Tests used:
[1] = molecular target: particulate methane monooxygenase (pMMO) trimer (Methylococcus capsulatus (Bath) (endogenous in M. capsulatus (Bath))) (UniProt Q607G3)
[2] = molecular target: pMMO monomer consisting of PmoA, PmoB, and PmoC (Methylococcus capsulatus (Bath) (endogenous in M. capsulatus (Bath))) (UniProt Q607G3); assay: cryo-EM structure; cryoET with subtomogram averaging of isolated M. capsulatus (Bath) membranes, no detergent; 25 mM PIPES pH 7.3, 250 mM NaCl; single trimer 4.8 Å, 7-particle unit 10 Å, three trimers 12 Å; 3-fold symmetry applied

## particulate methane monooxygenase (pMMO) trimer (from UniProt Q607G3 1-247; G1UBD1 33-414) (complex)
[1]
  methane oxidation activity of SEC fractions with larger pMMO nanodisc arrays against single particle nanodiscs (13C-methanol by GC/MS, duroquinol reductant, 45 °C): < 3 fold

## pMMO monomer consisting of PmoA, PmoB, and PmoC (from UniProt Q607G3 1-247; G1UBD1 33-414) (complex)
[2]
  stoichiometry N: 3
